{
  "source": "patent US8168594B2",
  "about": "“Method for treating celiac disease” (Alba Therapeutics Corporation, priority 2006, dated 2012)",
  "key": {"[1]": {"assay": "Release from delayed-release particles in Simulated Gastric Fluid (dissolution apparatus, HPLC)", "assay_type": "physicochemical", "settings": "delayed-release particles containing 4-6% peptide; SGF containing 0.1% v/v Tween 80K, 37° C.; time course of 60 minutes", "experimental": "(§1) The stability of delayed-release particles containing 4-6% tight junction antagonist peptide (SEQ ID NO: 1) was performed. Delayed-release particles prepared as described above were exposed to Simulated Gastric Fluid (SGF) containing 0.1% v/v Tween 80K under controlled temperature (37° C.±0.5° C.) and agitation in a dissolution apparatus for 1 hour. The beads were removed from the SGF and exposed to Simulated Intestinal Fluid (SIF) containing 0.1% v/v Tween 80K. Samples were pulled from the bath and analyzed by HPLC at 220 nm on a Inertsil ODS-2 HPLC Column (150 mm×3 mm, 5 μm) with an Inertsil ODS-2 HPLC Guard Column (20 mm×4.6 […], 5 μm). Mobile Phase A: 92:8 Water:ACN, 0.1% TFA Mobile Phase B: ACN, 0.1% TFA). The chromatographic conditions are shown below.\n(§2) • Run time: 17 min • Detection: 220 nm • Response time: 0.5 sec • Column Temp.: 40° C.±1° C. • Auto Sampler Temp: 10° C.±2° c. • Injection Volume: 5 μl of solution\n(§3) The percentage of total tight junction effector released is determined by comparison to a reference standard of the effector.\nSimulated Gastric Fluid may be prepared as follows: per liter, place the following into a container: 2.0 gram sodium chloride, 7.0 mL concentrated hydrochloric acid, and 1.0 L water. Stir until completely dissolved. Check the pH and adjust to 1.2±0.1 with dilute HCl or NaOH. De-aerate medium. To this solution Tween 80 was added to 0.1% (v/v). […]"}, "[2]": {"assay": "Release from delayed-release particles in Simulated Intestinal Fluid (dissolution apparatus, HPLC)", "assay_type": "physicochemical", "settings": "delayed-release particles containing 4-6% peptide, SIF containing 0.1% v/v Tween 80K, after 1 hour in SGF", "experimental": "as §1, §2, §3\nSIF can be prepared as follows: place the following into a container: 1.9 Kg distilled water, 136 g monobasic potassium phosphate, and 18.1 gram of sodium hydroxide. Stir until completely dissolved. Dilute the solution with 18.0 Kg water. Check the pH and adjust to 6.8±0.1 with dilute HCl or NaOH. De-aerated medium. […]"}, "rabbit ileal mucosa": {"system": "rabbit ileal mucosa", "settings": "cited from earlier work"}},
  "data": [
    {"substance": "GGVLVQPG [SEQ ID NO:1, tight junction antagonist peptide]", "values": [
      {"measurement": "antagonist peptide released in simulated gastric fluid", "setting": "[1]", "result": "less than 8%"},
      {"measurement": "antagonist peptide released in simulated intestinal fluid within 15 minutes", "setting": "[2]; within 15 minutes", "result": "Over 90%"},
      {"measurement": "antagonist peptide released in simulated intestinal fluid within 60 minutes", "setting": "[2]; within 60 minutes", "result": "essentially all"}
    ]},
    {"substance": "ZOT: Zonula occludens toxin produced by Vibrio cholerae; tight junction agonist", "values": [
      {"measurement": "effect on intestinal permeability", "setting": "rabbit ileal mucosa", "result": "increased the intestinal permeability"}
    ]}
  ]
}
